Values quoted from earlier work as cited in PMC6136348, “In the quest for new targets for pathogen eradication: the adenylosuccinate synthetase from the bacterium Helicobacter pylori” (Journal of Enzyme Inhibition and Medicinal Chemistry, 2018).

Biological target: Adenylosuccinate synthetase (Escherichia coli) (UniProt P0A7D4)

Chain of Adenylosuccinate synthetase (P0A7D4 2-432): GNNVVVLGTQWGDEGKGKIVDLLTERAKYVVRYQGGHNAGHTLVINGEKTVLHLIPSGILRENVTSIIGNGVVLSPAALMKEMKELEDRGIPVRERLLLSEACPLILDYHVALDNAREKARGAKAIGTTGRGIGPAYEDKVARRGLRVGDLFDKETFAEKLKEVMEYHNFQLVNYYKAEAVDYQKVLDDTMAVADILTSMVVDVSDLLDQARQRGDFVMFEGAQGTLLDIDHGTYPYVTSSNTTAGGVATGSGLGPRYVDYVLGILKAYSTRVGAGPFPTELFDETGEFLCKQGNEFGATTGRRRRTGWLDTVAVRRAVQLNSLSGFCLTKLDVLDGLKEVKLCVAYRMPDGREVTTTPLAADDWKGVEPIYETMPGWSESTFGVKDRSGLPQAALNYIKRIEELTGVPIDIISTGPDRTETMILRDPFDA

Kd: 10 µM
Substance: Adenylosuccinate synthetase (from UniProt P0A7D4)
